The record followed here is article PMC10141581, “Autonomous Synthesis of Functional, Permanently Phosphorylated Proteins for Defining the Interactome of Monomeric 14-3-3ζ” (ACS Central Science, 2023).

By stoichiometry N is commonly meant the number of molecules, sites or subunits per partner or assembly.

This data set concerns the molecule itself. The data set can be described thus: SEC-MALS; 14-3-3ζ variants alone, injected at 50 μM initial concentration; Superdex 200 10/300 GL; 50 mM Tris pH 7.4, 150 mM NaCl, 0.5 mM TCEP; room temperature; dimer to monomers. On the technique in general: SEC sorts molecules by how far they enter the pores of the column.

B1: 14-3-3ζ S58E (natural protein, human)
chain: MDKNELVQKAKLAEQAERYDDMAACMKSVTEQGAELSNEERNLLSVAYKNVVGARRSEWRVVSSIEQKTEGAEKKQQMAREYREKIETELRDICNDVLSLLEKFLIPNASQAESKVFYLKMKGDYYRYLAEVAAGDDKKGIVDQSQQAYQEAFEISKKEMQPTHPIRLGLALNFSVFYYEILNSPEKACSLAKTAFDEAIAELDTLSEESYKDSTLIMQLLRDNLTLWTS
notes: 14-3-3 protein zeta with Glu at position 58 (ζ-isoform numbering); also called S58E variant; phosphomimetic S58E; source: E. coli, purified
For the protein B1, the “stoichiometry N” value was found to be 2.
